Measurements: the supplement of paper PMC12042874
± gives the uncertainty stated by the source.

test: amyloid nucleation score (Sup35N fusion, yeast selection) (log enrichment); library NNK3; higher = more nucleation; inactive = no reads after selection
Outline: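 The nucleation score is the DiMSum log enrichment of output over input reads, centred on the mode score of non-aggregating sequences. Only sequences with 100 or more input reads were scored, using Illumina sequencing of input and output plasmid inserts. Psi-negative yeast expressing Sup35N fused to peptides of 20 random codons were induced 24 hours with 100 μM copper sulfate and grown 7 days at 30°C on medium lacking adenine and uracil.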

Amyloid nucleation score, 2.18 ± 0.073:
QMYKYNPNLYFFSVAVNLVV

Amyloid nucleation score, 1.73 ± 0.099:
QFESSSFRYVAVCSVCAFSI

Amyloid nucleation score, 1.74 ± 0.063:
QVPYFYLSVFLFFSPCSINF

Amyloid nucleation score, -0.586 ± 1.4:
PQLWSMYHSGP

Amyloid nucleation score, 0.645 ± 0.12:
QSQWFGIVFMLNIMRSRDFR

Amyloid nucleation score, 0.101 ± 0.29:
PIYDRFTSKIACLNMMVDLR

Amyloid nucleation score, 0.982 ± 0.14:
PRVFGRVTSRMFLDFVLNF

Amyloid nucleation score, 0.481 ± 0.32:
PTSVY

Amyloid nucleation score, -0.8 ± 2.5:
QLTNRKCR

Amyloid nucleation score, 0.364 ± 0.34:
PFPFSNLLERV

Amyloid nucleation score, -0.507 ± 1:
PYFRMVNYYFFMTVSGRFNF

Amyloid nucleation score, -0.521 ± 1.4:
PMLVALWCMGKTN

Amyloid nucleation score, 0.206 ± 0.78:
QVLTFVYFHDNVMVLGWEYS

Amyloid nucleation score, 0.503 ± 0.24:
QQCVTLQIYTMFKLRDYPA

Amyloid nucleation score, 1.47 ± 0.084:
QMIRVVVFNYDQFFR

Amyloid nucleation score, 2.72 ± 0.069:
QLNGCHWCTMLSVVFCSRGV

Amyloid nucleation score, inactive:
PFDHTSHNVVRKLLSSELLR, PFLLSFKGNMQADSPGC, PFLLSMNVGQGFRRV, PFNLPMARNETWGTVQAKIR, PFTLSSMVSVLPMGFRIGDK, PFTPFSHVR, PFYFCGHSQYSWTAW, PGISRNFVNGPRWSMFS, PGLCGNGHNDHKTVNIEVYH, PGNEEVGTNCMLTSNLTYVH, PGVDERT, PIILKIPV, PINWECWDQELEGLHDMQAI, PIPLIPFE, PIRWYRRSLFLCWLTDDRLG, PKISFSGWM, PLKIYIGNQLV, PLLGSIFRFWWRGDTLMYRL, PLLMDPTFPFAIRTDMVSLR, PLMRTGEDISPERQRDGRGK, PLSNGELFRNATLNDGIWGE, PLTLIQDQQGRVSFSKA, PLTVI, PMHLTKVHVVRNFVTQSTRG, PMQAS, PNEMGSSVMENNWTIHNFGM, PNFLRTCLLTYRGRSY, PNGALK, PNGHLLYMYFFMRDGSSDRG, PNHEFYRARFRLCNAICTTV, PNQYWQ, PPCYKI, PSHIGLL, PSQAFS, PSQHMRSARRQVGKSTSNEG, PSSRT, PTAHYWSVRSRSIDPPACQW, PTFVPARSRYSLNVFNPLDE, PTKDVMVGSK, PTSSKLKFAFINYVLTVSTS, PTYAC, PVDIVHVHAIRIMFMEGSDV, PVGVMTVSDLLFDYFAFRSF, PVITSYSSIYVSCDIVW, PVLGPAEGITIGRGV, PVLLIRSKFDQRRAWSFHTV, PVLWPLFKYVCFLTW, PVSLNDIYIIKCANKNYEVI, PVWLCSLPR, PWKLYYNFQVLLLNAGHLML, PYLRMG, PYMITILHFISHATVLNTSV, PYSKELVHVTSSSATFTRCE, PYVQRNVCCAPV, QAIQPSMQGLWQRALTSRSP, QAQVDKCLLARFVGL, QATFGWTANSSLFFSRDFLA, QCFKDRMWHGICREPVAKIG, QDALVSCWKFGAVSDQCDYW, QDEPTMNVQ, QDLGECN, QESLDANFGLIVCYADLAED, QFFSISIFTWVYLVENVADI, QGFFGDNNAV, QGNSIWMYLGWVNKTML, QHALCSTAIRILLSV, QHYDDSNRFYNK, QICTQFRSG, QIVFIRPKNL, QKLSCPMFLMAIIVSKITKM, QKVLLWTSGPSSSRHRTEEF, QLCLKGSPIVVVRCLRHNKI, QLGFWKELSSSHS, QLLGNGP, QLLLKT, QLRGGVHMMHVCACGVDWWM, QLSFMEGANLRYCDFKPMIV, QLSVYIYLLIQLVISRKRNT, QMCTQLSIMI, QNLDSMRGGIRSLLVIIRKS, QQDTNDSGYYGRVGMLVSYW, QRGVLL, QRKFVVAVVSATILLFNTRE, QRLRHFAVYTMMYEAWASRC, QRYVLSCRALTGDTCWRKSG, QSNTLYIKFAAWSYFFSDPE, QSTIEKHDMPDRLFIVAAGS, QTISVYYFHVLWSEGCRMYA, QTSIPGFDTTTLRVPLAFFG, QTSRT, QVDFQLCH, QVGVWRNNGYEYYRGRNLRG, QVRVVGHFKWYRIGTKVRDI

Amyloid nucleation score, 0.997 ± 0.12:
QFITLCLSSRSEVSVPFSLW

Amyloid nucleation score, -0.423 ± 0.76:
QIFLVKPMSDFSCNSSRYTL

Amyloid nucleation score, -0.431 ± 0.62:
PRMRFILGFVIIEKENDRVK

Amyloid nucleation score, 1.14 ± 0.18:
PHNGHKNSWCTVPGSSCRSV

Amyloid nucleation score, 1.77 ± 0.12:
PGWVDHIEAISRTVRGWFGP

Amyloid nucleation score, -0.313 ± 0.84:
QAVTMRTGVKCYQIGRAWIG

Amyloid nucleation score, 0.837 ± 0.22:
QFKYHYYNLCWSTSVFSFKN

Amyloid nucleation score, -0.114 ± 0.78:
PVEWP

Amyloid nucleation score, 0.479 ± 0.18:
QILFTQILLNSGEEGLSFVS

Amyloid nucleation score, -0.592 ± 0.75:
PIPHML

Amyloid nucleation score, 1.78 ± 0.086:
PFLCFRIYFSACWINLTLNL
